Twelve variants from the supplement of paper PMC11908140 can be followed below.

The labels stand for the following.
B1: library; numbered along this chain (parent)
chain: MRKPRAAVGSGHRKQAASQEGRQKHAKNNSQAKPSACDGLARQPEEVVLQASVSSYHLFRDVAEVTAFRGSLLSWYDQEKRDLPWRRRAEDEMDLDRRAYAVWVSEVMLQQTQVATVINYYTGWMQKWPTLQDLASASLEEVNQLWAGLGYYSRGRRLQEGARKVVEELGGHMPRTAETLQQLLPGVGRYTAGAIASIAFGQATGVVDGNVARVLCRVRAIGADPSSTLVSQQLWGLAQQLVDPARPGDFNQAAMELGATVCTPQRPLCSQCPVESLCRARQRVEQEQLLASGSLSGSPDVEECAPNTGQCHLCLPPSEPWDQTLGVVNFPRKASRKPPREESSATCVLEQPGALGAQILLVQRPNSGLLAGLWEFPSVTWEPSEQLQRKALLQELQRWAGPLPATHLRHLGEVVHTFSHIKLTYQVYGLALEGQTPVTTVPPGARWLTQEEFHTAAVSTAMKKVFRVYQGQQPGTCMGSKRSQVSSPCSRKKPRMGQQVLDNFFRSHISTDAHSLNSAAQ

The series covers variants of B1. Kind of series: 8OG:A repair function score (normalized; synonymous = 0, nonsense = -1) (normalized log-likelihood score); higher = more repair activity (WT-like). As to conditions: with 8OG:A DNA repair reporter (GFP) in HEK-293 MUTYH KO cells. How it is done:
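Saturation mutagenesis (NNN codon scan) of the MUTYH cDNA (521-aa nuclear isoform NM_001048174.1 / NP_001041639), stably expressed under doxycycline induction in HEK-293 MUTYH knockout cells. Cells were co-transfected with an 8OG:A-bearing GFP repair reporter plus mCherry and sorted 72 h later into GFP+ and GFP− bins, three replicates per tile. The Rosace log2 enrichment (GFP+ vs GFP−) was converted per tile to a normalized function score with synonymous variants centered at 0 and nonsense variants (codons 1-471) at -1; low-abundance variants were removed.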
MRKPRAAVGSGHRKQAASQEGRQKHAKNNSQAKPSACDGLARQPEEVVLQASVSSYHLFRDVAEVTAFRGSLLSWYDQEKRDLPWRRRAEDEMDLDRRAYAVWVSEVMLQQTQVATVINYYTGWMQKWPTLQDLASASLEEVNQLWAGLGYYSRGRRLQEGARKVVEELGGHMPRTAETLQQLLPGVGRYTAGAIASIAFGQATGVVDGNVARVLCRVRAIGADPSSTLVSQQLWGLAQQLVDPARPGDFNQAAMELGATVCTPQRPLCSQCPVLSLCRARQRVEQEQLLASGSLSGSPDVEECAPNTGQCHLCLPPSEPWDQTLGVVNFPRKASRKPPREESSATCVLEQPGALGAQILLVQRPNSGLLAGLWEFPSVTWEPSEQLQRKALLQELQRWAGPLPATHLRHLGEVVHTFSHIKLTYQVYGLALEGQTPVTTVPPGARWLTQEEFHTAAVSTAMKKVFRVYQGQQPGTCMGSKRSQVSSPCSRKKPRMGQQVLDNFFRSHISTDAHSLNSAAQ [E275L]: the “8OG:A repair function score” value was -0.00764. Turning to MRKPRAAVGSGHRKQAASQEGRQKHAKNNSQAKPSACDGLARQPEEVVLQASVSSYHLFRDVAEVTAFRGSLLSWYDQEKRDLPWRRRAEDEMDLDRRAYAVWVSEVMLQQTQVATVINYYTGWMQKWPTLQDLASASLEEVNQLWAGLGYYSRGRRLQEGARKVVEELGGHMPRTAETLQQLLPGVGRYTAGAIASIAFGQATGVVDGNVARVLCRVRAIGADPSSTLVSQQLWGLAQQLVDPARPGDFNQAAMELGATVCTPQRPLCSQCPVESLCRARQRVEQEQLLASGSLSGSPDVEECAPNTGQCHLCLPPSEPWDQTLGVVNFPRKASRKPPREESSATCVLEQPGALGAQILLVQRPNSGLLAGLWEFPSVTWEPSEQLQRKALLQELQRWAGPLPATHLRHLGEVVHTFSHIKLTYQVYGLALEGQTPVTTVPPGARWLTQEEFHTAAVSTAMKKVFRVYQGQQPGTCMGSKRSCVSSPCSRKKPRMGQQVLDNFFRSHISTDAHSLNSAAQ [Q484C], the “8OG:A repair function score” value was -0.0119. The value for MRKPRAAVGSGHRKQAASQEGRQKHAKNNSQAKPSACDGLARQPEEVVLQASVSSYHLFRDVAEVTAFRGSLLSWYDQEKRDLPWRRRAEDEMDLDRRAYAVWVSEVMLQQTQVATVINYYTGWMQKWPTLQDLASASLEEVNQLWAGLGYYSRGRRLQEGARKVVEELGGHMPRTAETLQQLLPGVGRYTAGAIASIAFGQATGVVDGNVARVLCRVRAIGADPSSTLVSQQLWGLAQQLVDPARPGDFNQAAMELGATVCTPQRPLCSQCPVESLCRARQRVEQEQLLASGSLSGSPDVEECAPNTGQCHLCLPPSEPWDQTLGVVNFPRKASRKPPREESSATCVLEQPGALGAQILLVQRPNSGLLAGLWEFPSVTWEPSELLQRKALLQELQRWAGPLPATHLRHLGEVVHTFSHIKLTYQVYGLALEGQTPVTTVPPGARWLTQEEFHTAAVSTAMKKVFRVYQGQQPGTCMGSKRSQVSSPCSRKKPRMGQQVLDNFFRSHISTDAHSLNSAAQ [Q386L] was 0.304.

Consider MRKPRAAVGSGHRKQAASQEGRQKHAKNNSQAKPSACDGLARQPEEVVLQASVSSYHLFRDVAEVTAFRGSLLSWYDQEKRDLPWRRRAEDEMDLDRRAYAVWVSEVMLQQTQVATVINYYTGWMQKWPTLQDLASASLEEVNQLWAGLGYYSRGRRLQEGARKVVEELGGHMPRTAETLQQLLPGVGRYTAGAIASIAFGQATGVVDGNVARVLCRVRAIGADPSSTLVSQQLWGLAQQLVDPAWPGDFNQAAMELGATVCTPQRPLCSQCPVESLCRARQRVEQEQLLASGSLSGSPDVEECAPNTGQCHLCLPPSEPWDQTLGVVNFPRKASRKPPREESSATCVLEQPGALGAQILLVQRPNSGLLAGLWEFPSVTWEPSEQLQRKALLQELQRWAGPLPATHLRHLGEVVHTFSHIKLTYQVYGLALEGQTPVTTVPPGARWLTQEEFHTAAVSTAMKKVFRVYQGQQPGTCMGSKRSQVSSPCSRKKPRMGQQVLDNFFRSHISTDAHSLNSAAQ [R246W], for which the “8OG:A repair function score” value was -0.645. The value for MRKPRAAVGSGHRKQAASQEGRQKHAKNNSQAKPSACDGLARQPEEVVLQASVSSYHLFRDVAEVTAFRGSLLSWYDQEKRDLPWRRRAEDEMDLDRRAYAVWVSEVMLQQTQVATVINYYTGWMQKWPTLQDLASASLEEVNQLWAGLGYYSRGRRLQEGARKVVEELGGHMPRTAETLQQLLPGVGRYTAGAIASIAFGQATGVVDGNVARVLCRVRAIGADPSSTLVSQQLWGLAQQLVDPARPGDFNQAAMELGATVCTPQRPLCSQCPVESLCRARQRVEQEQLLASGSLSGSPDVEECAPNTGQCHLCLPPSEPWDQTLGVVNFPRKASRKPPREESSATCVLEQPGALGAQILLVQRPNSGLLAGLWEFPSVTWEPSEQLQRKALLQELQRWAGPLPHTHLRHLGEVVHTFSHIKLTYQVYGLALEGQTPVTTVPPGARWLTQEEFHTAAVSTAMKKVFRVYQGQQPGTCMGSKRSQVSSPCSRKKPRMGQQVLDNFFRSHISTDAHSLNSAAQ [A405H] was -0.489; that for MRKPRAAVGSGHRKQAASQEGRQKHAKNNSQAKPSACDGLARQPEEVVLQASVSSYHLFRDVAEVTAFRGSLLSWYDQEKRDLPWRRRAEDEMDLDRRAYAVWVSEVMLQQTQVATVINYYTGWMQKWPTLQDLASASLEEVNQLWAGLGYYSRGRRLQEGARKVVEELGGHMPRTAETLQQLLPGVGRYTAGAIASIAFGQATGVVDGNVARVLCRVRAIGADPSSTLVSQQLWGLAQQLVDPARPGDFNQAAMELGATVCTPQRPLCSQCPVESLCRARQRVEQEQLLASGSLSGSPDVEECAPNTGQCHLCLPPSEPWDQTLGVVNFPRHASRKPPREESSATCVLEQPGALGAQILLVQRPNSGLLAGLWEFPSVTWEPSEQLQRKALLQELQRWAGPLPATHLRHLGEVVHTFSHIKLTYQVYGLALEGQTPVTTVPPGARWLTQEEFHTAAVSTAMKKVFRVYQGQQPGTCMGSKRSQVSSPCSRKKPRMGQQVLDNFFRSHISTDAHSLNSAAQ [K333H] was -0.0128; that for MRKPRAAVGSGHRKQAASQEGRQKHAKNNSQAKPSACDGLARQPEEVVLQASVSSYHLFRDVAEVTAFRGSLLSWYDQEKRDLPWRRRAEDEMDLDRRAYAVWVSEVMLQQTQVATVINYYTGWMQKWPTLQDLASASLEEVNQLWAGLGYYSRGRRLQEGARKVVEELGGHMPRTAETLQQLLPGVGRYTAGAIASIAFGQATGVVDGNVARVLCRVRAIGADPSSTLVSQQLWGLAQQLVDPARPGDFNQAAMELGATVCTPQRPLCSQCPVESLCRARQEVEQEQLLASGSLSGSPDVEECAPNTGQCHLCLPPSEPWDQTLGVVNFPRKASRKPPREESSATCVLEQPGALGAQILLVQRPNSGLLAGLWEFPSVTWEPSEQLQRKALLQELQRWAGPLPATHLRHLGEVVHTFSHIKLTYQVYGLALEGQTPVTTVPPGARWLTQEEFHTAAVSTAMKKVFRVYQGQQPGTCMGSKRSQVSSPCSRKKPRMGQQVLDNFFRSHISTDAHSLNSAAQ [R283E] was -0.246. With MRKPRAAVGSGHRKQAASQEGRQKHAKNNSQAKPSACDGLARQPEEVVLQASVSSYHLFRDVAEVTAFRGSLLSWYDQEKRDLPWRRRAEDEMDLDRRAYAVWVSEVMLQQTQVATVINYYTGWMQKWPTLQDLASASLEEVNQLWAGLGYYSRGRRLQEGARKVVEELGGHMPRTAETLQQLLPGVGRYTAGAIASIAFGQATGVVDGNVARVLCRVRAIGADPSSTLVSQQLWNLAQQLVDPARPGDFNQAAMELGATVCTPQRPLCSQCPVESLCRARQRVEQEQLLASGSLSGSPDVEECAPNTGQCHLCLPPSEPWDQTLGVVNFPRKASRKPPREESSATCVLEQPGALGAQILLVQRPNSGLLAGLWEFPSVTWEPSEQLQRKALLQELQRWAGPLPATHLRHLGEVVHTFSHIKLTYQVYGLALEGQTPVTTVPPGARWLTQEEFHTAAVSTAMKKVFRVYQGQQPGTCMGSKRSQVSSPCSRKKPRMGQQVLDNFFRSHISTDAHSLNSAAQ [G236N], the “8OG:A repair function score” value turned out to be 0.18. The result for MRKPRAAVGSGHRKQAASQEGRQKHAKNNSQAKPSACDGLARQPEEVVLQASVSSYHLFRDVAEVTAFRGSLLSWYDQEKRDLPWRRRAEDEMDLDRRAYAVWVSEVMLQQTQVATVINYYTGIMQKWPTLQDLASASLEEVNQLWAGLGYYSRGRRLQEGARKVVEELGGHMPRTAETLQQLLPGVGRYTAGAIASIAFGQATGVVDGNVARVLCRVRAIGADPSSTLVSQQLWGLAQQLVDPARPGDFNQAAMELGATVCTPQRPLCSQCPVESLCRARQRVEQEQLLASGSLSGSPDVEECAPNTGQCHLCLPPSEPWDQTLGVVNFPRKASRKPPREESSATCVLEQPGALGAQILLVQRPNSGLLAGLWEFPSVTWEPSEQLQRKALLQELQRWAGPLPATHLRHLGEVVHTFSHIKLTYQVYGLALEGQTPVTTVPPGARWLTQEEFHTAAVSTAMKKVFRVYQGQQPGTCMGSKRSQVSSPCSRKKPRMGQQVLDNFFRSHISTDAHSLNSAAQ [W124I] reads -0.714; that for MRKPRAAVGSGHRKQAASQEGRQKHAKNNSQAKPSACDGLARQPEEVVLQASVSSYHLFRDVAEVTAFRGSLLSWYDQEKRDLPWRRRAEDEMDLDRRAYAVWVSEVMLQQTQVATVINYYTGWMQKWPTLQDLASASLEEVNQLWAGLGYYSRGRRLQEGARKVVEELGGHMPRTAETLQQLLPGVGRYTAGAIASIAFGQATGVVDGNVARVLCRVRAIGADPSSTLVSQQLWGLAQQLVDPARPGDFNQAAMELGATVCTPQRPLCSQCPVESLCRARQRVEQEQLLASGSLSGSPDVEECAPNTGQCHLCLPPSEPWDQTLGVVNFPRKASRKPPREESSATCVLEQPGSLGAQILLVQRPNSGLLAGLWEFPSVTWEPSEQLQRKALLQELQRWAGPLPATHLRHLGEVVHTFSHIKLTYQVYGLALEGQTPVTTVPPGARWLTQEEFHTAAVSTAMKKVFRVYQGQQPGTCMGSKRSQVSSPCSRKKPRMGQQVLDNFFRSHISTDAHSLNSAAQ [A354S], -0.0885. Consider MRKPRAAVGSGHRKQAASQEGRQKHAKNNSQAKPSACDGLARQPEEVVLQASVSSYHLFRDVAEVTAFRGSLLSWYDQEKRDLPWRRRAEDEMDLDRRAYAVWVSEVMLQQTQVATVINYYTGWMQKWPTLQDLASASLEEVNQLWAGLGYYSRGRRLQEGARKVVNELGGHMPRTAETLQQLLPGVGRYTAGAIASIAFGQATGVVDGNVARVLCRVRAIGADPSSTLVSQQLWGLAQQLVDPARPGDFNQAAMELGATVCTPQRPLCSQCPVESLCRARQRVEQEQLLASGSLSGSPDVEECAPNTGQCHLCLPPSEPWDQTLGVVNFPRKASRKPPREESSATCVLEQPGALGAQILLVQRPNSGLLAGLWEFPSVTWEPSEQLQRKALLQELQRWAGPLPATHLRHLGEVVHTFSHIKLTYQVYGLALEGQTPVTTVPPGARWLTQEEFHTAAVSTAMKKVFRVYQGQQPGTCMGSKRSQVSSPCSRKKPRMGQQVLDNFFRSHISTDAHSLNSAAQ [E167N], for which the “8OG:A repair function score” value worked out at 0.0307. Regarding MRKPRAAVGSGHRKQAASQEGRQKHAKNNSQAKPSACDGLARQPEEVVLQASVSSYHLFRDVAEVTAFRGSLLSWYDQEKRDLPWRRRAEDEMDLDRRAYAVWVSEVMLQQTQVATVINYYTGWMQKWPTLQDLASASLEEVNQLWAGLGYYSRGRRLQEGARKVVEELGGHMPRTAETLQQLLPGVGRYTAGAIASIAFGQATGVVDGNVARVLCRVRAIGADPSSTLVSQQLWGLAQQLVDPARPGDFNQAAMELGATVCTPQRPLCSQCPVESLCRARQRVEQEQLLASGSLSGSPDVEECAPNTGQCHLCLPPSEPWDQTLGVVNFPRKASRKPPREESSATCVLEQPGALGAQILLVQRPNSGLLAGLWEFPSVTWEPSEQLQRKALLQELQRWAGPLPATHLRHLGEVVHTFSHIKLTYQVYGLALEGQTPVTTVPPGARWLTQEEFHTAAVSTAMKKVFRVYQEQQPGTCMGSKRSQVSSPCSRKKPRMGQQVLDNFFRSHISTDAHSLNSAAQ [G471E], the “8OG:A repair function score” value is -0.0561.
